Laboratory results reported in article PMC11092324 (Journal of Virology, 2024).

Experiments:
Details in all cases: both partners purified
[1] = biological target: T1, GI.9 Vancouver virus-like particles (VP1 protein of the norovirus GI.9 Vancouver strain) (Norovirus Hu/GI.9/Vancouver730/2004/CAN, UniProt F2XMU3, strain); test: ELISA; sandwich ELISA: CV-1A1 Fv-clasp or scFv (0.7 µM in 50 mM carbonate buffer pH 9.6) coated on high-binding microplates, VLPs added in twofold serial dilutions, 37°C 2 h, detected with rabbit anti-VLP antisera; data fit to the Michaelis-Menten equation, Km taken as Kd (affinity or avidity); concentration counted as VP1
T1 construct: also called Vancouver VLPs; GI.9 Vancouver VP1

[2] = biological target: T1, GI.9 Vancouver virus-like particles …; test: ELISA; sandwich ELISA: Strep-tagged CV-2F5 scFv (0.7 µM in PBS) held on Strep-Tactin-coated wells, VLPs added in twofold serial dilutions, 37°C 2 h, detected with rabbit anti-VLP antisera; data fit to the Michaelis-Menten equation, Km taken as Kd (affinity or avidity); concentration counted as VP1
[3] = biological target: T2, P domain of the VP1 protein from the GI.4 Chiba strain (P dimer) (norovirus GI.4 Chiba strain); test: crystal structure; Chiba P domain mixed with CV-2F5 scFv in a molar ratio of 1:1.2, complex isolated by size-exclusion chromatography, crystallized by sitting drop at 25°C in 35% Tacsimate pH 7.0
T2 construct: also called Chiba P domain protein; Chiba P dimers; source: E. coli cell-free protein synthesis system, purified (HisTrap, SUMO protease, HiTrapQ)
T2 chain: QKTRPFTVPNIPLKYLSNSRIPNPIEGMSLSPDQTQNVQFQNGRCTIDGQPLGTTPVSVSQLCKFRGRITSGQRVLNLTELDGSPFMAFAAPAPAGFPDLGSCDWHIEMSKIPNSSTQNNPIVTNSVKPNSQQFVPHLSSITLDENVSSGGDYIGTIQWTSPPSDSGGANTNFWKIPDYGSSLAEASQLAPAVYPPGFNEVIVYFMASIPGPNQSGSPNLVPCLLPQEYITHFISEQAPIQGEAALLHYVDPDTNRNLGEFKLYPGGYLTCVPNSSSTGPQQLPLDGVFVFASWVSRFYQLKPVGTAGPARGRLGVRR

B1: CV-1A1 Fv-clasp (other)
VH: EVQLVESGAEVKKPGASVKVSCKASGYTFTSLYMHWVRQAPGQGLEWMGMINPSGGGTWNAQKFQGRVTMTRDTSTSTVYMELRSLRSDDTAMYYCARDSDQYSQGLGYWGQGTLVTVCS
VL: QSALTQPASVSGSPGQSITISCTGTSSDVGGYNYVSWYQQHPGKAPKLMIYDVSKRPSGVSNRFSGSKSGNTASLTISGLQAKDEADYYCSSYTSSSTWVFGGGTKLTVL
notes: also called CV-1A1 Fv-clasp fragments; Fv-clasp version of CV-1A1; source: E. coli cell-free protein synthesis system (with DsbC and Skp), purified (HisTrap, TEV protease, HiTrap Q)
[1]
  binding result: no binding

B2: Strep-tagged CV-2F5 scFv (scFv, V domains shown)
VH: EVQLVESGGGLVKPGGSLRLSCAASGFTFSSYNMNWVRQAPGKGLEWVSSISTSSRYIYYADSVKGRFTISRDNAKNSLYLQMNSLRAEDTAVYYCAREEGSVDYGMDVWGQGTTVTVSS
VL: not shown
notes: also called CV-2F5-Strep; source: E. coli harboring pETSUMO-CV-2F5-Strep, purified (TALON resin, SUMO protease on the resin); not shown: His tag, N-terminal, cleaved; SUMO, N-terminal, cleaved; Strep-tag, C-terminal, kept
[2]
  Kd: 0.0144 µM

B3: CV-2F5 scFv (N11-TEV construct, tag removed) (scFv, V domains shown)
VH: B2 VH
VL: not shown
notes: also called CV-2F5 antibody fragment; CV-2F5 scFv antibodies; source: E. coli cell-free protein synthesis system, purified (HisTrap, TEV protease, HiTrap SP)
[3]
  stoichiometry N: 1
